Assays:
[1] = biological target: T1, PiCypA (cyclophilin A-like protein) (Piriformospora indica, UniProt C6KGV3 1-164); test: ITC
[2] = biological target: T1, PiCypA (cyclophilin A-like protein); test: ITC; remark: listed apart in the source

**Q.** How did the Kd [1] turn out when AUAGCCUCAACCG (ssRNA) [13 mer RNA] was run?
**A.** 22.5 µM

**Q.** Does AAAAAAAAAAAAA (ssRNA) [13 mer poly-A RNA] bind [2]?
**A.** no binding
